41 sequences from the nanobody polyreactivity screen of Harvey et al. (2022) can be followed below.

A short description of the data set: yeast display, Sf9 membrane polyspecificity reagent, FACS + sequencing; frameworks hold sequencing errors. Put shortly: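 Synthetic nanobody libraries on Saccharomyces cerevisiae BJ5465 were galactose-induced for 36–48 hours, stained 1 hour at 4 °C with 10% biotinylated, detergent-solubilized Sf9 membrane reagent and enriched on streptavidin microbeads. FACS then separated cells into low and high (top ~1%) gates by anti-HA (expression) and streptavidin (reagent binding) fluorescence. Genes were colony-PCR amplified, MiSeq 2 × 250 sequenced and CDR-length filtered. A clone's polyreactivity label is that of its gate of origin.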
As for “QVQLVESGGGLVQAGGSLRLSCAASGSIFPRNVMGWYRQEPGKERQLVAVITARGGSTYYADSVKGRFTISRDNAKNTVYLQMNSLKPEDTAVYYCATPYSRRKIPPNYDYWGLGTQVTVSS”, the “polyreactivity (PSR sort gate)” value is listed as “high polyreactivity”.
As to “QVQLVESGGGLVQAGGSLRLSCAASGSTFAPNAMGWYRQAPGKERELVAVITRSVGSTYYADSVKGRFTISRDNSKNTVYLKMNSLKPEDTAVYFCAADYLRQDDYVALDYWGQGTQVTVSS”, the “polyreactivity (PSR sort gate)” value was “low polyreactivity”.
Take “QVQLVESGGGLVQAGGSLRLSCAASGSIFFEYAMGWYRQAPGKERALVASINRGGGSTYYADSVKGRFTISRDYAKNTVYLQMNILIPEDTAVYYCAAQWKYRQYYLDYYWGQGTQVTVSS”: the “polyreactivity (PSR sort gate)” value is given as “low polyreactivity”.
Take “QVQLVESGGGLVQAGGSLRLICAASGRPFTYNMGWYRQAPGKERELVAANDLRRLCEGALHNFTRQCEEYRLFTDVQPETGRYPVYYCNADPAWIWYTFDYWGQGTQVTVSS”: the “polyreactivity (PSR sort gate)” value is on record as “low polyreactivity”.
As to “QVQLVESGGGLVQAGGSLRLSCAASGNIFYNVMGWYRQAPGKVRELVAVISSGDSTYYADSVKGRFTISRDNAKNTVYLQMNSLIPEDTAVYYCNAQWITSAYLLYSYDYWWGYDYWGQGTQVTVSS”, the “polyreactivity (PSR sort gate)” value is “high polyreactivity”.
“QVQLVESGGGLFLAGGSLRLSCAAAGSTFVTNDMGWYRQAPGKERELVAAISVGGRTSYADSVKGRFTISRDNAKNTVYLQMNSLKPEDTAVYYCAAQYRYTYWGQGTQVTVSS”: the “polyreactivity (PSR sort gate)” value was “low polyreactivity”.
For “QVQLVESGGGLVQAGCSLRLSCAASGSIFARYAMGWSRQAPGKERELVAAINSTVSTNYADSVKGRFTISRDNAKNTVYLQMNSLKTEDTAVYYCAVDIVRGGRDSWGQGTQVTVSS”, the “polyreactivity (PSR sort gate)” value is “low polyreactivity”.
Consider “QVQLVESGGGLVQAGGSLRLSCAASGRTFKTYAMGWYSQAPGKERELVAAISRDGRTYYADSVKGRFTISRDNAKNTVYLQMNSLKPEDTAVYYCNKRSYRKGDYWGQGTQVTVSS”, for which the “polyreactivity (PSR sort gate)” value is listed as “low polyreactivity”.
Regarding “QVQLVESGGGLVQAGGSLRLSCAAYGSIFYSYAMGWYRQAPGKERELVASIRIGSSTNYADSVKGRFTISRDNAKNTVYLQMNSLKPEDSAVYYCAARRFYKYYYGSDYWGQGTQVTVSS”, the “polyreactivity (PSR sort gate)” value is “high polyreactivity”.
“QVQLVESGGGLVQAGGSLRLSCAASGSIFIYYTMGWYRQAPGKEREFVASISWRGGRTYYADSVKGRFTISRDNAKNTVYLQMNSLKPEDTAVYYCAAKSRAYSYRMDYWGQGTQVTVSS”: the “polyreactivity (PSR sort gate)” value is “high polyreactivity”.
Take “QVQLVESGGGLVQAGGSLRLSCAASGSTFTLNAMGWYRQAPGKERELVADISWSSGRTYYADSVKGRFTISRDNAKNTVYLQMNSLKPEDTAVYYCATYDFWNVKFYAYYPEFDYWGQGTQVTVSS”: the “polyreactivity (PSR sort gate)” value is given as “low polyreactivity”.
The same measure for “QLQLVESGGGLVQAGGSLRISCAASGSTFFLNAMGWYRQAPGKERELVAAITSGSGNTYYADSVKGRFTISRDNAKNTVYLQMNSLKPADSAVYYCNVTRFVYRPYGLDRDDYWGQGTQGTVSS”: “low polyreactivity”; for “QGQLVESGGGLVQAGGSLRLSCAASGSSFRGNALGGYRQAPGKERELVASISYSGGSTYYADSVKGRFTISRDSAKNTVYLQMNSLKPEDTAVYYCAADDSVAYPYSGYQYYRHIYDDWGQGTQVTVSS”: “low polyreactivity”; for “QVQLVESGGGLVQAGGSLRLSCAASGFTSWDIDMGCYRQAPGIEREMVAAITGGGTTNYADSVKGRFTISRDNAKNTVYLQMNSLKPEDTAVYYCAAKPWWYSGYDYWGQGTQVTVSS”: “low polyreactivity”.
The same measure for “QVQLVESGGGLVQAGGSLRLSCAASGFTFGRYAMGWYRQAPGKERELVAGITWSGGSTSYADSVKGRFTISRDNAKNTVYLQMNSLKPEDTAVYYCATRARYTRVHGRRYAYDYWGQGTQVTVSS”: “high polyreactivity”; for “QVQLVESGGGLVQAGGSLRLSCAASGRTFYFYVKGWYRQAPAKERELVARISWSGGSTYYADSVKGRFTISRDNAKNTVYLQMNSLKPEDTAVYYCARQYIYPSSGEYDSWGQGTQVTVSS”: “low polyreactivity”; for “QVQLVESGGGLVQAGGSLRLSCAASGFIFVVNAMGWYRQAPGKEREFVAVISSSTGSTYYADSVKGRFTISRDNAKNTVYLQMNSLKPEDTAVYYCAAASRRRRPLNRMDYWGQGTQVTVSS”: “low polyreactivity”.
In the case of “QVQLVESGGGLVQAGGSLRLSCAASGRIFNKYVMGWYRQAPGKERELVAAISGRGGSTYYADYVKGRFTISRDNAKNTVYLQMNSLKPEDTAVYYCAARYGYYTSDYKYYDWGQGTQVTVSS”, the “polyreactivity (PSR sort gate)” value was “high polyreactivity”.
On to “QVQLVESGGGLVQAGGSLRLSCAASGSTISRYTMGWYPQAPGKERELVAAIRRSGSSTYYADSVKGRYTISRDNAKYTVYLQMNSLKREDTAVYYCAVGRYRYGYWGQGTQVTVSS”, for which the “polyreactivity (PSR sort gate)” value is recorded as “high polyreactivity”.
As for “QVQLVESGGGLVQAGGSLRLSCAASGSNFQYYGMGWYRQAPGKERELVASISRSGGSTYYADSVKGRFTISRDNAKNTVYLQMNSLKPEDTAVYYCNAKEAIRRTHLTTTYRDGYWGQGTQVTVSS”, the “polyreactivity (PSR sort gate)” value is reported as “low polyreactivity”.
For the sequence “QVQLVESGGGLVQAGGSLRLSCAASGRIRVQNDMGWYRQAPGKERELVAAIRSDGSPSYSDSVKGRFTISRDNAKNTVYLQMNSLKPEDTAVYYCAARIDWTGGEYDYWGQGTQVTVSS”, the “polyreactivity (PSR sort gate)” value is given as “low polyreactivity”.
With “QVQLVESGGGLVQAGGSLRLSCAASGSIFYINTMGWYRQPPGKERELVAAINFSDGRTYYADSVKGRFTISRDNAKNTVYLQMNSLKPEDTAVYYCAADVYPSEYDYWGQGTQVTVSS” the entry was “low polyreactivity”.
With “QVQLVESGGGLVQAGGSLRLSCAASGFTFNRYAMGWYRQAPGKERELVAAISWSGTSTYYADSVKGRFTISRDNAKNTVYLQMNSLKPEDTAVYYCATRQTHSYDYWGQGTQVTVSS” the entry was “high polyreactivity”.
Regarding “QVQLVESGGGLVQAGGSLRLSCADSGNIFNYYAMGWYRQAPGKERELVAAISTSGGRTYYADSVKGRFTISRDNAKNTVYLQMNSLKPEDTAVYYCAKVNRLYTYDYWGQGTQVTVSS”, the “polyreactivity (PSR sort gate)” value is “high polyreactivity”.
In the case of “QVQLVESGGGLVQAGGSLRLSCAASGFTFAYYAMGWDRQSPGNEREFVAAISSRGGSTYADSVKGRFTISRDNAKNTVYLQMNSLKPEDTAVYYCNAVVPRSRYFSWTYDYWGQGTQVTVSS”, the “polyreactivity (PSR sort gate)” value is recorded as “high polyreactivity”.
The same measure for “QVQLVESGGGLVQAGGSLRLSSAASGRTFNYYTMGWYRQAPGKERELVAAITNGGSTNYADSVKGRFTISRDNAKNTVYLQMNSLKPEDTAVYYCNADAFAFRTLHYDYWGQGTQVTVSS”: “low polyreactivity”.
As to “QLQLVESGGGLVQAGGSLRLSCAASVRTFNSYAMGRYRQAPGKERELVAGISTSGDNTYYADSVKGRFTISRDNAKNTVFLQMNSLKPEDSAVYYCATQFPPSTIYDYWGQGTQVTVSS”, the “polyreactivity (PSR sort gate)” value is given as “low polyreactivity”.
The same measure for “QVQLVESGGGLVQAGGSLRLSCAASGSNFDFYAMGWYRQAPGKERELVAAISSSGTSTYYADSVKGRFTISRDNAKNTVYLQMNSLKPEDTAVYYCAAVYSRSGYTWREYGYWGQGTQVTVSS”: “low polyreactivity”; for “QVQLVESGGGLVQAGGSLRLSCAASGSTFYWYAMGWYRQAPGKERELVAAISRSSGSTYYADSVKGRFTISRDNAKNSVYLQMNSLKPEDTAVYYCAADYYLRSFVWTAYDSWGQGTQVTVSS”: “high polyreactivity”.
Regarding “QVQLVESGGGLVQAGGSLRLSCAASGLTFRKNAMGWYRQAPGKERELVAGISSGGSTYYADSVKGRFTISRDNAKNTVYLQMNSLKPEDTAVYYCGANALRTMYYWGQGTQVNVSS”, the “polyreactivity (PSR sort gate)” value is listed as “high polyreactivity”.
With “QVQLVESGGGLVQAGAILRLICAASGRIFYRYAMGWYRQAPGKERELVAAISSGGGRTYYADSVKGRFTLSRDNAKNTVYLQMNSLKPEDTAVYYCAASGNSYEQTGGYWGQGTQVTVSS” the entry was “high polyreactivity”; with “QVQLVESGGGLVQAGGSHRLSCAASGRIFVYYPRGWYRQAPGIETELVAAINAGRSTNYADSVKGRFTNSRDNAKNNVYLQMNSLKLQDTAVYFCAAVRRSRYSYRGYYWGQGTQVTVSS”, “high polyreactivity”; with “QVQLVESGGGLVQAGGSLRLSCAATGRISFRILWDGIDRRLGKKGSWLPLLTNTGSTNYADSVKARFTISRDNAKNTVYLQMNSLKPEDTAVYYCNADPTGGSSYPAYFEYDYWGQGTQGTVSS”, “low polyreactivity”.
The same measure for “QDQLVESGGGLVQAGGSLRLTCAASGRTFTHYAMGWYRQAPVKERELVAAISRSGGTTYYADSVKGRFTISLDNAKNTVYLQMNSRKPEDTAVYYCAARWWYRYNYDYWGQGTHVTVSS”: “high polyreactivity”; for “QVQLVESGGGLVQAGGSLRLSCAASGFTYSKNAMGWDRQAPAKERELVAVITRRGGSTYYADSVKGRFTISRDNAKNTVYLQMNSLKPEDTAVYYCAAASFTRRDLDYWGQGTQVTVSS”: “high polyreactivity”; for “QVHLVESGGGLVQAGGSLRLSCAASGRILGKYSMGWYRQAPGKERELVAAIRLRGGSTYYADSVKGRFTISRDNAKNTVYLQMNSLKPEDTAVYYCAARYWDRSQAYNYWGQGTQVTVSS”: “high polyreactivity”.
As to “QVQLVESGRGLVHAGGSLRISCAASGSTYTWNVMGWYRQAPGKERELVADINSGADTSYADSVKGRFTISRDNAKNTVYLQMNSLKPEDTGVYYCAADIYVYDYWGQGTQVTVSS”, the “polyreactivity (PSR sort gate)” value is recorded as “low polyreactivity”.
“QVQLVESGGGLVQAGGSLRLSCAASGSTFKRYAMGWYRQPPGKERELVASISSGGSTNYADSVKGRFTISRDNAKNSVYLQMNSLKPEDTAVYYCAAGYHVSTRGLIGHFDYWGQGTQVTVSS”: the “polyreactivity (PSR sort gate)” value is “high polyreactivity”.
On to “QVQLVESGGGLVQAGGSLRLSCAASGRTFAIYVMGWYRHAPGKERELVAAITRVGSTYADSVKGRFTISRDNAKNTVYLQMNSLKPEDTAVYYCAAVSGVRSGPWRYDYWGQGTQVTVSS”, for which the “polyreactivity (PSR sort gate)” value is “high polyreactivity”.
“QVQLVESGGGLVQAGGSLRLSCAASGRTFGWYAMGWYRQAPGKERELVAAITYPTGSTYYADSVKGRFTISRDNAKNTVYLQMNSLKPEDTAVYYCAAQGYISAGYKYDYWGQGTQVTVSS”: the “polyreactivity (PSR sort gate)” value is given as “low polyreactivity”.
With “QGQLVESGGGLVQAGGSLRLSCAASGISFSFYAMGWYRQAPGKERELVADITLSGGRTYYADSVKGRFTISRDNAKNTVYLQMNSLKPEDTAVYYCNADTYERVDYWGQGTQVTVSS” the entry was “high polyreactivity”.
